# In article PMC5101508 (Scientific Reports, 2016):
# T1: gp41 583-618 peptide, oxidized form (Cys598-Cys604 disulfide) (HIV-1 (clade B, strain BaL), disulfide bond between Cys598 and Cys604 (oxidized peptide))
# T1 peptide: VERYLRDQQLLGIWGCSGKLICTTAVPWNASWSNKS
# T2: gp41 583-618 peptide, reduced form (pretreated with TCEP) (HIV-1 (clade B, strain BaL))
# T2 peptide: T1 peptide
# B1: monoclonal antibody F240 (IgG) (antibody, V domains shown)
# VH: QVQLVQSGGGVVKPGASSRLSCAASGFTFTDYYMSWIRQAPGKGLEWVAYITKDGSEKKYADSLQHRFAVSRDNANNLVFLQLNTVEDDDTGVYYCARDDGYYDRSGYYGVFDLWGQGIRVTVSS
# VL: EFLLTQSPDSLAVTLGETATITCRSSRNILHSLNNKNYLAWYQQRPGQAPKLLVIWASMRVSGVADRFSGSGSGTDFALTISSLQPEDAAVYYCQHYYTTHRTFGQGTRVEIR
# modifications: Alexa Fluor 647 on primary amines (only in the FCS experiments and in the staining of IMC BaL-infected cells) | Alexa Fluor 647 on primary amines (only in the FCS experiments and in the staining of IMC BaL-infected cells)
# B2: N5-i5: Cluster A CD4i antibody used as control (antibody, V domains shown)
# VH: EVQLVESGGGLVQPGGSLRLSCAASGFTFSTYAMSWVRQAPGKGLEWVSSINNSGRNTFSADSVKGRFTISRDNSKNTLFLVMNSLRAEDTAVYYCAKDLRLGGGSDYWGQGTLVTVSS
# VL: QSALTQPASVSGSPGQSITISCTGTSSDVGSYNFVSWYQQHPGKAPKLMIYEVSERPSGISNRFSGSKSGNTASLTISGLQAEDEADYYCSSYAGSTTFRVFGGGTKLTVR
# Assays:
# [1] = target: monoclonal antibody F240 (IgG) (human (isolated from an HIV infected individual)); assay: SPR
# mAb F240 [2] = assay: Surface Plasmon Resonance (SPR) of gp41 peptide on captured F240 IgG; type: binding; conditions: reduced vs oxidized peptide
# Procedure: Sensorgrams were obtained at room temperature for mAb F240 immobilized on a Protein A chip with 0–200 nM concentrations of gp41 peptide passed over the chip. […] Standard deviations of ka, kd and KD for two experiments are shown.
# The binding affinity and kinetics of F240 for gp41_583–618 peptide and gp41_583–618 peptide pretreated to reduce C^598-C^604 disulfide bond was assessed by Surface Plasmon Resonance on a Biacore T-100 (GE Healthcare) at 25 °C. The reduced gp41_583–618 was generated by treating the oxidized form of the same peptide with 0.05 M of TCEP. Protein A was first immobilized onto the second of the two flow cells on a CM5 chip to ~3000 response units (RU) and the first flow cell blocked with a standard amine coupling protocol (GE Healthcare). F240 IgG to be evaluated was then captured onto the second flow cell by flowing a 5–10 nM solution of mAb at 10 μl/min flow rate for 30 seconds. […] Varying concentrations (0–200 nM) of the oxidized and reduced forms of the peptide were then passed over both flow cells at a flow rate of 30 μl/min for 200 seconds and allowed to dissociate by passing buffer over both cells at the same flow rate for 800 seconds. The cells were regenerated with a 30 second injection of 0.1 M glycine pH 3.0 with a flow rate of 100 μl/min and the antibody reloaded onto the second flow cell for each peptide concentration. […]
# [3] = test system: EGFP-CEM-NKr-CCR5-SNAP cells sensitized with AT-2–inactivated HIV-1 BaL; assay: RFADCC, virion bound assay; type: cell-based; conditions: curves normalized for plateau cytotoxicity values using C11 (Fig. 5D); two independent experiments in duplicate
# Excerpt: (§1) EGFP-CEM-NKr-CCR5-SNAP cells sensitized with AT-2–inactivated HIV-1 BaL were (C) stained for antibody binding and (D) ADCC using the modified rapid fluorometric antibody-mediated cytotoxicity assay (RFADCC)[35]. Cluster A CD4i antibodies A32, N5-i5, C11 and Synagis were used as controls. The plot represents a mean of two independent experiments normalized to the average A32 values with error bars showing the range between experiments.
# (§2) In brief, EGFP-CEM-NKr-CCR5-SNAP target cells were first stained with the SNAP-Surface Alexa Fluor 647 dye, washed twice and spinoculated with HIV-1 BaL AT-2 inactivated virus at 2000 RPM for 2 h at 12 °C. Subsequently, AT-2 BaLsensitized double-stained targets were washed twice with cold R10 medium and then subjected to testing for antibody binding (detected with PE-labeled mouse anti-human IgG secondary antibody, BD Bioscence cat. 555787) and RFADCC assay, following the previously described protocol. Samples were collected on a BD Fortessa Special Order instrument (BD Biosciences) and analyzed using FlowJo software (Tree Star, Ashland, OR). The HIV-1BaL AT-2 inactivated virus was generously provided by Dr. Jeff Lifson, NCI, Frederick. The ADCC data represent the typical results obtained in two independent experiments done in duplicate and the bars indicate the range of the values of cytotoxicity.
# mAb F240 [4] = assay: Isothermal Titration Calorimetry (ITC) of F240 with gp41 peptides; type: binding; conditions: 25 °C, 1X PBS pH 7.4, F240 111 μM in syringe, peptide 11 μM in cell, single-site model
# Procedure: Sensorgrams were obtained at room temperature for mAb F240 immobilized on a Protein A chip with 0–200 nM concentrations of gp41 peptide passed over the chip. […] Standard deviations of ka, kd and KD for two experiments are shown. […] The binding isotherms were fitted to a one-site binding model using Origin for ITC version 7.0383 (MicroCal). The fitting yields the stoichiometry (N), the binding constant (KD), and the enthalpy (ΔH) of the binding reaction.
# The ITC experiments were performed using an ITC200 system (Micro-Cal) as previously described by Bradshaw et al.[61], at 25 °C in a 1X PBS buffer pH 7.4. F240 was dialyzed against this buffer overnight before the experiment. The peptides were dissolved in the final dialysis buffer. […] Titrations were performed at 25 °C with 17 injections of 2.42 μl aliquots, with 210–240 second intervals between injections. Heats of dilutions were measured and subtracted from each data set. Data were corrected for the heat of dilution and fitted using a nonlinear least-squares routine using a single-site binding model with Origin for ITC version 7.0383 (MicroCal).
# [5] = target: gp41 583-618 peptide, oxidized form (Cys598-Cys604 disulfide) (HIV-1 (clade B, strain BaL)); assay: ITC
# [6] = target: HIV-1 BaL envelope glycoprotein (Env, gp120/gp41) on AT-2-inactivated virions (HIV-1 (clade B, strain BaL)); assay: fluorescence correlation spectroscopy (FCS); Alexa 647 labelled mAb (5 μg/ml) incubated with 10 μg/ml of free AT-2-inactivated HIV-1 BaL virions for 90 minutes at 37 °C; in solution
# [7] = target: T1, gp41 583-618 peptide, oxidized form …; assay: SPR
# [8] = target: T1, gp41 583-618 peptide, oxidized form …; assay: SPR
# [9] = target: T2, gp41 583-618 peptide, reduced form …; assay: SPR; peptide pretreated with TCEP
# [10] = target: T2, gp41 583-618 peptide, reduced form …; assay: SPR; peptide pretreated with TCEP
# [11] = test system: EGFP-CEM-NKr-CCR5-SNAP cells sensitized with AT-2–inactivated HIV-1 BaL; assay: Antibody binding (staining) to virion-sensitized cells, virion bound assay; type: cell-based; conditions: Fig. 5C; PE-labeled anti-human IgG secondary antibody; mean of two independent experiments normalized to A32
# Excerpt: as §1, §2
# [12] = test system: EGFP-CEM-NKr-CCR5-SNAP cells infected with BaL infectious molecular clone; assay: Cell-surface staining of IMC BaL infected EGFP-CEM-NKr-CCR5-SNAP cells; type: cell-based, HIV-1 BaL
# Procedure: For BaL-infected cells two gates were delineated: p24+/CD4− and p24+low/CD4+; and one for Mock p24−/CD4+. The plot represents a mean of two independent experiments normalized to the average A32 values with error bars showing the range between experiments.
# EGFP-CEM-NKr-CCR5-SNAP cells were spinoculated for 2 hr at 2000 RPM at 12 °C in 96-well U-bottom plate (5 × 10^5 cells/well) with 240 ng of IMC BaL virus (control cells were incubated without virus), as measured by HIV-1 p24 antigen capture ELISA. Afterward, the viral inoculum was diluted 1:2 in R10 medium containing G418 1.5 mg/ml, and cells and virus were placed into one well of a 12-well flat-bottom plate. The cells were then cultured adding fresh medium every 2 days. […] After a wash, cells were then fixed and permeabilized using the Cytofix/Cytoperm Kit (BD-PharMingen, San Diego, Calif.) for 20 min at 4 °C. Subsequently, permeabilized cells were washed once with the buffer provided by the manufacturer, resuspended and stained for 30 min at RT with 5 μl (PE)-conjugated mouse anti-p24 mAb (KC57-RD1; Beckman Coulter, Inc.). After two additional washes, HIV-1- or mock were fixed in PFA 2% analyzed with an LSRII Fortessa flow cytometer (BDBiosciences) and data analysis was performed with FlowJo software (Tree Star,Inc., San Carlos, Calif.). The plot represents a mean of two independent experiments normalized to the average A32 values with error bars showing the range between experiments.
molecule,measurement,setting,value
"gp41 583-618 peptide, reduced form (pretreated with TCEP)",fold lower affinity than the oxidized peptide,[1],14 fold
"VERYLRDQQL[10] LGIWGCSGKL[20] ICTTAVPWNA[30] SWSNKS [reduced gp41_583–618, gp41_583–618 pretreated with TCEP to reduce the C598-C604 disulfide bond]",lower affinity as compared to its oxidized form,mAb F240 [2],approximately 14 fold
"Synagis: Synagis (MedImmune), control mAb [reference compound]","AUC (Area Under Curve), ADCC",[3],18.2 cytotoxicity/μg/ml
VERYLRDQQL[10] LGIWGCSGKL[20] ICTTAVPWNA[30] SWSNKS (disulfide) [gp41_583–618],binding constant KB,mAb F240 [4],2.95e+07 M⁻¹
same,Kd,mAb F240 [4]; read-out: dissociation constant KD,34 nM
monoclonal antibody F240 (IgG),Ka,[5],2.95e+07 M⁻¹
same,Kd,[5],34 nM
same,percent of binding,[6],40%
B1,Kd,[7],4.4 nM
same,koff,[8],0.00083 s⁻¹
same,Kd,[9],60 nM
same,koff,[10],0.0028 s⁻¹
B2,"recognition (binding) of virion-sensitized cells, in words",[11],Lower than reported in ref. [35]
same,"AUC (Area Under Curve), ADCC",[3],374.8 cytotoxicity/μg/ml
same,binding to mock-infected cells,[12]; mock p24−/CD4+ population,did not recognize
same,binding to productively infected cells,"[12]; p24+/CD4− population, 5 days post-infection",did not recognize
same,binding to CD4-preserving cells with virus,"[12]; p24+low/CD4+ population, 5 days post-infection",very effectively stained
